Experimental data from the MegaScale stability set (Tsuboyama et al. 2023).

B1: 1ZHC (parent)
chain: HEFRDEISVLKANNPHFDKIFEKHNQLDDDIKTAEQQNASDAEVSHMKKQKLKLKDEIHSMIIEYREK

Variants of: B1
Test: folding stability dG (cDNA display proteolysis); higher = more stable
Details: PBS, room temperature

Folding stability dG [kcal/mol], by site and new letter:
H24: V 0.939; K -0.319; W 1.64; Q 0.285; A 0.782; I 1.22; R -0.124; M 1.74; T -0.497; C 1.86; F 2.06; S 0.609; Y 2.15; L 1.68
I20: M -0.166; T -0.398; Y -0.117; V 0.461; A -0.159; L 0.743; C -0.061
I7: M -0.64; K -0.95; T -0.043; W 0.295; C 1.14; H -0.334; Y 0.804; V 0.475; A -0.185; N -0.499; F 0.109; E -0.7; L 0.235; R -0.653
S8: K 1.21; Y 0.782; P -0.067; E 1.32; L 1.21; G 0.671; Q 1.11; C 1.67; D 0.953; R 1.26; H 0.57; I 0.988; A 1.56; M 1.4; F 1; N 0.922; V 0.784; W 1; T 1.08
N13: A 0.764; K 0.586; W 1.06; H 0.775; R 1; D 0.311; Y 0.635; M 1.33; L 1.44; Q 1.22; V 0.458; E 0.701; F 0.565; I 1.31; G 0.346; S 0.889; T 1.39
Q26: H -0.231; M -0.061; I -0.025; R 1.28; Y -0.902; D 0.206; V -0.13; S 0.329; C -0.127; N 0.184; L 0.746; T 0.215; E -0.511; A 0.273; W -0.614; F -0.21; K 1.07
N14: H -0.133; F 0.397; S 0.54; W 1; Q -0.421; I -0.077; M -0.831; A -0.402; D 0.835; Y 0.963; E -0.24; V -0.058; L -0.009
V9: D 0.497; Q 1.05; S 0.824; C 1.91; A 1.16; I 1.06; H 1.49; T 0.509; L 1.23; N 0.901; K 1.37; M 1.07; G 0.417; R 1.01; E 0.933; W 2.46; F 2.05
K23: C 0.886; S 0.339; I 0.915; A 0.787; W 1.28; V 0.152; T 0.355; L 1.55; M 1.58; N 0.111; E 1.16; R 0.933; F -0.019; D 0.146; H 0.386; Q 1.33; Y 1.02
E6: Y 1.42; T 1.14; R 0.234; F 1.4; G -0.608; I 2.1; N 0.08; H 0.158; V 1.5; L 1.76; M 1.46; C 1.95; D 0.718; S 0.271; P 0.04; W 1.55; Q -0.376; K -0.498; A 1.3
K19: S 0.513; D 0.823; I 0.622; E 1.1; L 0.515; M 0.78; Y 1.52; A 1.13; T 0.755; Q 0.953; R 1.15; G 0.004; V 0.316; C 1.32; H 0.901; N 0.558; W 1.3; F 1.37
D28: E 1.18; A 1.37
L10: I 0.415; A -0.294; S -0.995; Y -0.44; V -0.406; C 0.629; G -0.111; W -0.69; M -0.173
E22: N 1.34; R 1.57; Q 1.44; H 0.392; D 0.198; W 0.419; G 0.979; C 0.723; M 1.27; A 1.32; K 1.57; Y 0.584; S 1.19; I 0.633; T 1.26; F 0.764; L 1.04; V 0.395
H16: S -0.066; C 0.932; Q 0.27; G -0.149; M -0.101; L 0.427; A 0.24; E 0.338; K 0.147; R 0.534; D -0.361; Y 1.53; V 0.505; W 1.1; N -0.56; F 0.373; T 0.264; I 0.609
L27: Y -0.311; I 0.13; V 0.331; C 0.277; W -0.576; M 0.198; F 0.005
F17: G -0.943; E -0.562; R -0.98; P -0.525; C -0.409
P15: Q 0.122; D 0.108; N 0.045; V 0.356; I 0.31; H 0.38; G 0.048; R 0.029; M 0.07; K 0.313; L 0.336; F -0.013; E 0.365; W 0.335; T 0.292; A 0.443; C 0.845; S 0.822; Y -0.634
F21: M 0.443; I 0.372; T -0.186; V 0.263; S 0.151; Y 0.959; L 0.554; C 0.68; W 1.79; H -0.017
N25: C 1.41; I 0.737; H 0.533; T 0.573; L 1.14; W 0.642; E 0.44; D 0.646; A 1.03; Q 1.29; G -0.067; S 0.766; R 1.59; K 1.42; F 0.65; V 0.471; Y 0.277; M 0.989
A12: M 0.648; H 0.398; L 0.297; Q 0.395; C 1.42; K 1.07; E 0.524; S 0.404; P -0.496; N 0.287; G 0.257; T 0.659; Y 0.632; R 0.983; F 0.361; I 0.482; V 0.253; W -0.494; D 0.188
D18: S 1.56; Y 1.95; V 1.68; I 1.43; T 1.35; E 1.35; W 1.77; L 2.42; C 1.97; K 2.23; F 2.03; N 1.74; Q 1.95; A 2.29; R 2.46; M 2.03; H 1.62; G 1.16
D5: W 1.47; Y 1.53; V 0.719
K11: M 0.616; D -0.966; P -0.825; Y -0.334; S 0.169; T -0.058; F 0.176; V 0.083; A 0.308; Q 0.591; W -0.052; R 1.96; C 1.05; L 1.07; G -0.572; I 0.839
